Assay: yeast display, Sf9 membrane polyspecificity reagent, FACS + sequencing; frameworks hold sequencing errors
Outline: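 Genes from sorted yeast were amplified by colony PCR, read by MiSeq 2 × 250 sequencing and filtered on CDR length. These cells carried a synthetic nanobody library in Saccharomyces cerevisiae BJ5465 and were sorted by FACS into low and high (top ~1%) gates on anti-HA and streptavidin fluorescence. Polyreactivity is labelled according to the gate of origin.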

Row | Sequence | polyreactivity (PSR sort gate)
1 | QVQLVESGGGLVQAGGSLRLSCAASGLIFKRYAMGWYRQAPGKERELVAAISSGTRTYYADSVKGRFTISRDNAKNTVYLQMNSLKPEDTAVYYCAARLDYWGQGTQVTVSS | high polyreactivity
2 | QVQLVESGGGLVQAGGSLRLSCAASGLIFKYYAMGWYRQAPGKERELVAAITGRGGSTYYADSVKGRFTISRDNAKNTVYLQMNSLKPEDTAVYYCARRRTYSFNPVTYDWGQGTQVTVSS | high polyreactivity
3 | QVQLVESGGGLVQAGGSLRLSCAASGLIFLRNAMGWYRQAPGKERELVAAISRSGGSTYYADSVKGRFTISRDYAKNTVYLQMNSLKPDDTAVYYCAKYGYGGVIPGPDHYDYWGQGTQVTVSS | high polyreactivity
4 | QVQLVESGGGLVQAGGSLRLSCAASGLIFNLYAMGWYRQAPGKEREFVATITGIGGSTYYADSVKGRFTISRDIAKNTVYLQMNSLKPDDTAVYYCAADAWFVPYNYWGQGTQVTVSS | low polyreactivity
5 | QVQLVESGGGLVQAGGSLRLSCAASGLIFNLYAMGWYRQAPGKEREFVATITGIGGSTYYADSVKGRFTISRDNAKNTVYLQMNSLKPEDTAVYYCAADAWFLPYNDWGQGTQVTVSS | low polyreactivity
6 | QVQLVESGGGLVQAGGSLRLSCAASGLIFNRYVMGWYRQARGKERELVAAITCSGDSTYYADSVKGRFTISRDNAKNTVYLQMNSLKPVDTAVYYCAAWDYRYTDREGDYWGPGTQVTVSS | high polyreactivity
7 | QVQLVESGGGLVQAGGSLRLSCAASGLIFNTYAMGWYRQAPGKDRELVAAITDGGGTNYADSVKGRFTISRDNAKNTVYLQMNSLKPEDTAVYYCAARLASWPLTYDFQWYEYWGQGTQVTVSS | low polyreactivity
8 | QVQLVESGGGLVQAGGSLRLSCAASGLIFNYYAMGWYRPAPGKERELVAAIYNGGSTYADSVKGRFTISRDNAKNTVYLQMNSLKPEDTAVYYCNTDDPDRDNDVKSIDYDYWGQGTQVTVSS | low polyreactivity
9 | QVQLVESGGGLVQAGGSLRLSCAASGLIFNYYAMGWYRQAPGKEREFVAAISGRGGNTYYADSVKVRFTISRDNAKTTVYLQINSLKPEDTAVYYCAARRYYSNREYDYWGQGTQVTVSS | high polyreactivity
10 | QVQLVESGGGLVQAGGSLRLSCAASGLIFPAYAMGWYRQAPGKERELVAAISYSGGRTYYADSVKGRVTISRDNAKNTVYLQMNSLKPEDTAVYYCNTGYWYVSLGSYDYYGEYDYWGQGTQVTVSS | high polyreactivity
11 | QVQLVESGGGLVQAGGSLRLSCAASGLIFPGYAMGWYRQAPGKERELVAAISWSGGTTYYADSVKGRFTISRDNAKNTVYLQMNSLKPEDTAVYYCNAVYLQGYDYWGQGTQVTVSS | low polyreactivity
12 | QVQLVESGGGLVQAGGSLRLSCAASGLIFPPNAMGWYRQAPGKERELVASITRSGVSTNYADSVKGRFTISRDNAKNTVYLQMNSLKPEDTAVYYCAAVIYSTYTIPNDEMGYWGHGTQVTVSS | low polyreactivity
13 | QVQLVESGGGLVQAGGSLRLSCAASGLIFPRYAMGWYRQAPGKERELVAAITRGGSTYYADSVKGRFTISRDNAKNTVYLQMNSLKPEATAVYDCNAELPVHCSWYDYWGQGTQVTVSS | low polyreactivity
14 | QVQLVESGGGLVQAGGSLRLSCAASGLIFPRYAMGWYRQAPGKERELVAAITRGGSTYYADSVKGRFTISRDNAKNTVYLQMNSLNPEDTAVYYCTAELPVHWSWYDYWGQGPQVTVSS | low polyreactivity
15 | QVQLVESGGGLVQAGGSLRLSCAASGLIFPRYAMGWYRQAPGKVSELVAAITWSGGSTFYADSVKGRFTISRDTAKNTVYLQMNSLKPEDTAVYYCAAQDASERTYGYDGYYYWGQGTQVTVSS | low polyreactivity
16 | QVQLVESGGGLVQAGGSLRLSCAASGLIFPRYGMGWYRQAPGKERELVAAISRSGGNTYYADSVKGRFTISRDNAKNTVYLQMNSLKPEDTAVYYCAAYFSTAPKSQYKLDYRGQGTQVTVSS | high polyreactivity
17 | QVQLVESGGGLVQAGGSLRLSCAASGLIFPRYTMGWYRQAPGKERELVAAIRGTGGSTYYADSVKGRFTISRDNPKNTVYLQLNSLKPEDTAVYYCATRGKSHGQQFNYWGQGTQVTVSS | high polyreactivity
18 | QVQLVESGGGLVQAGGSLRLSCAASGLIFPVYAMGWYRQAPGKEREFVASIWRGGTTYYADSVKGRFTISRDNAKNTVYLQMNSLKPEDTAVYYCAARYYPRGLVFPFTKYDYWGQGTQVTVSS | high polyreactivity
19 | QVQLVESGGGLVQAGGSLRLSCAASGLIFPYYTMGWYRQAPGKERELVAAISWRGGGTFYADSVKGRFTISRDNAKNTVYLQMNSLNPEDTAVYYCAAQLYPYRWYYWGQGTQVTVSS | high polyreactivity
20 | QVQLVESGGGLVQAGGSLRLSCAASGLIFQSYAMGWYRQAPGKERELVAVITWSGTSTYADSVKGRFTISRVNAKNTVYLQMNSLKPEDTAVYYCAASKYGSFTNFGYWGQGTQVTVSS | low polyreactivity
21 | QVQLVESGGGLVQAGGSLRLSCAASGLIFQYYAMGWSRQAPGKERELVASISWSGSSTYYADSVKGRFTISRDNAKNTVYLQMISLKPEDTAVYYCAAGWGRGWYDYWGQGTQVTVSS | high polyreactivity
22 | QVQLVESGGGLVQAGGSLRLSCAASGLIFRAYAMGWYRQAPGKERELVAAISRRGGSTYYADSVKGRFTISRDNANNTVYLQMNSLKPEDSAVYYCNKDSRSWPFKYDYWGQGTQVTVSS | high polyreactivity

Row | Sequence | polyreactivity (PSR sort gate)
23 | QVQLVESGGGLVQAGGSLRLSCAASGLIFRPYAMGWSRQAPGKERELVAAITSGGSTDYADSVKGRFTISRDNAKNTVYLQMNSLKPEDTAVYYCNADIYPHDGYPWQGDYDYWGQGTQVTVSS | low polyreactivity
24 | QVQLVESGGGLVQAGGSLRLSCAASGLIFRPYAMGWYRQAPGKERELVAAITSGGSTDYADSVKGRFTISRDNAKNTVYLQMNSLKPQDTAVYYCNADTIPDGEDRYVYWGQGTQVTVSS | low polyreactivity
25 | QVQLVESGGGLVQAGGSLRLSCAASGLIFRPYTMGWYRPAPGKERELVATISGSGASTNYADSVKGRFTISRDNAKNTVYLQMNSLKPEDTAVYYCKGRSYSRMYYWGQGTQVTVSS | high polyreactivity
26 | QVQLVESGGGLVQAGGSLRLSCAASGLIFRRYVLGWYRQAPGKEWELVAAISATGSRTYYADSVKGRFTISRDNAKNTVYLQRNSLKPEDNAVYYCAAYRGPRIYRYDYWGQVTQVTVSS | high polyreactivity
27 | QVQLVESGGGLVQAGGSLRLSCAASGLIFRTYAMGWYRQAPGKERELVAAISSSGGSTYYADSVKGRFTISRDNAKNTVYLQMNSLKPEDTAVYYCNVGSRRRRYLDRYEYWGQGTQVTVSS | high polyreactivity
28 | QVQLVESGGGLVQAGGSLRLSCAASGLIFRTYTMGWNRQAPGKERELVAVISTSGGTTYYADSVKGRFTISRDNAKNTVYLQMNSLKPEDTAVYYCAKRYYWKYAEYDYWGQGSQVTVSS | high polyreactivity
29 | QVQLVESGGGLVQAGGSLRLSCAASGLIFRWYAMGWYRQAPGKEREMVAAISRRGGTTNYADSVKGRFTISRDNAKNTVYLQMTSLKPEDTAVYYCAADYQSVGGAEYDYWGQGTQVTVSS | high polyreactivity
30 | QVQLVESGGGLVQAGGSLRLSCAASGLIFRWYAMGWYRQAPGKEWELVAAISRRGGTTNYADSVKGRFTISRDNAKKTVYLQMNSLKPEDTAVYYCAADYQSVGGAEYDYWGQGTQVTVSS | high polyreactivity
31 | QVQLVESGGGLVQAGGSLRLSCAASGLIFRWYDMGWYRQAPGKDRELVAAITRGGGTNYADSVKGRFTLSRDNAKNTVYLQMNSLKPEDTAVYYCAARLIKYGRAWTFGGYDYWGQGTQVSVSS | high polyreactivity
32 | QVQLVESGGGLVQAGGSLRLSCAASGLIFRYYAMGWYRQAPGKERELVAAIDGSDGITYYADSVKGRFTISRDNAKNTVYLQMNSLKPEDTEVYYCDAAFYYWGQGTQVTVSS | low polyreactivity
33 | QVQLVESGGGLVQAGGSLRLSCAASGLIFRYYAMGWYRQAPGKERELVATIRGGGSTYYADSVKGRFTISRDNAKNTVYLQMNSLKPEDTAVYYCAADPYSYGARGSRGDYWGQGTQVTVSS | low polyreactivity
34 | QVQLVESGGGLVQAGGSLRLSCAASGLIFRYYAMGWYRQAPGKESELVAAITSGGGTYYADSVKGRFTISRDNAKNTVYLQMNSLKPEDTAFYYCAVGSYGHPKHRRNLDYWGQGTQVTVSS | low polyreactivity
35 | QVQLVESGGGLVQAGGSLRLSCAASGLIFSDYAMGWYRQAPGKERELVAAISGIGTRTSYADSVKGRFTISRDNAKNTVYLQMNSLKPEDTAVYYCAARYYGFPSTLKYDYWGQGTQVTVSS | high polyreactivity
36 | QVQLVESGGGLVQAGGSLRLSCAASGLIFSEYAMGRSRQAPWKERELVAAIRSDGGSTYYADSVKGRFTISRDNAKNSVYLQMNSLKPEDTAVYYCNAPYRRSAKFRRYGYDYWGQGTQVTVSS | high polyreactivity
37 | QVQLVESGGGLVQAGGSLRLSCAASGLIFSGYAMGWYRQAPGKERELVAAINSGTSTTYADSVKGRFTISRDNAKNTVYLQMNSLKPEDTAVYYCNTPHNQDKPYPGYDYWGQGTQVTVSS | low polyreactivity
38 | QVQLVESGGGLVQAGGSLRLSCAASGLIFSGYAMGWYRQAPGKERELVAAISRGGGRTSYADSVKGRFTISRDNAKNTVYLQMNSLKPEDTAVYYCAKDPRYLRYDHWGQGTQVTVSS | high polyreactivity
39 | QVQLVESGGGLVQAGGSLRLSCAASGLIFSHYTMGWYRQAPGKERELVAAITSSGGSTYYADSVKGRFTISRDNAKNTVYLQMNSLKPEDTAVYYCNVDYYEPSWYDDDYWGQGTQVTVSS | low polyreactivity
40 | QVQLVESGGGLVQAGGSLRLSCAASGLIFSKNVMGWYRQAPGKERELVAAISQRGGSTYYADSVKGRFTISRDNAKNTVYLQMNSLKPEDTAVYYCAARSRRRDDYWGQGTQVTVSS | high polyreactivity
41 | QVQLVESGGGLVQAGGSLRLSCAASGLIFSNNAMGWYRQAPGKERELVAAITSSGSRTYYADSVKGRFTISRDNAKNTVYLEMNRLKPEDTAVYYCAAYEVPYQRRYGYWGQGTQVTVSS | high polyreactivity
42 | QVQLVESGGGLVQAGGSLRLSCAASGLIFSQYAMGWYRQAPGKEREFVARISSSGGSTYYADSVKGRFTISRDNAKNTVYLQMNSLKPEDTAVYYCAAVGGRNIRVWFRTKYDYWGQGTQVTVSS | low polyreactivity
43 | QVQLVESGGGLVQAGGSLRLSCAASGLIFSRYAMGWYRQAPGKERELVAAISSSGGTTYYADSVKGRFTISRDNAKNTVYLQMNSLKPEDTAVYYCAAGVAWRFYSWGQGTQVTVSS | high polyreactivity
